# Reference: article PMC11667226 (Theranostics, 2025)
# Read-outs that look alike come from different tables or passages of the source. Non-standard residues stand in square brackets, D forms with d. Residues, ends and D or L forms follow the SMILES beside them. *: point of attachment. X1 = CC1(C)C(=CC=CC=CC=CC2=[N+](CCCCCC(=O)*)c3ccc4ccccc4c3C2(C)C)N(CCCCS(=O)(=O)[O-])c2ccc3ccccc3c21; Cha = N[C@@H](CC1CCCCC1)C(=O)O
# Experimental: ECGs were taken at baseline, 1 hr ± 15 min, and 44 hrs ± 6 h post-injection. Blood samples (including lever and kidney parameters) were sampled at baseline, 12 hrs ± 4 hrs, and 44 hrs ± 6 hrs post-injection. All laboratory analyses were performed by the Department of Biochemistry at Rigshospitalet. AE assessments were graded according to the National Cancer Institute “Common Terminology Criteria for Adverse Events (CTCAE)” version 5.0. There was no data monitoring committee in this trial.
# [1] = FG001 36 mg i.v., n = 4, CTCAE v5.0
compound,measurement,setting,value
"CC(C)C[C@H](NC(=O)[C@H](Cc1ccc(O)cc1)NC(=O)[C@@H](CCCNC(=N)N)NC(=O)[C@@H](CO)NC(=O)[C@H](Cc1ccccc1)NC(=O)[C@H](CC1CCCCC1)NC(=O)[C@H](CC(=O)O)NC(=O)[C@H](CCC(=O)O)NC(=O)[C@H](CCC(=O)O)NC(=O)CCCCC[N+]1=C(C=CC=CC=CC=C2N(CCCCS(=O)(=O)[O-])c3ccc4ccccc4c3C2(C)C)C(C)(C)c2c1ccc1ccccc21)C(=O)N[C@@H](Cc1c[nH]c2ccccc12)C(=O)N[C@@H](CO)C(=O)O [FG001, ICG-Glu-Glu-AE105] (X1-EED[Cha]F[dS][dR]YLWS-OH; N-terminus and C-terminus assumed)",TEAE Blood bilirubin increased: No. events,"FG001 36 mg i.v., N=4",4
same,TEAE Blood bilirubin increased: No. subjects (%),"FG001 36 mg i.v., N=4",4 (100.0%)
same,TEAE Blood creatinine increased: No. events,"FG001 36 mg i.v., N=4",1
same,TEAE Blood creatinine increased: No. subjects (%),"FG001 36 mg i.v., N=4",1 (25.0%)
same,TEAE Dysgeusia: No. events,"FG001 36 mg i.v., N=4",0
same,TEAE Dysgeusia: No. subjects (%),"FG001 36 mg i.v., N=4",0 (0.0%)
same,TEAE GGT increased: No. events,"FG001 36 mg i.v., N=4",1
same,TEAE GGT increased: No. subjects (%),"FG001 36 mg i.v., N=4",1 (25.0%)
same,TEAE Hypalbuminaemia: No. events,"FG001 36 mg i.v., N=4",1
same,TEAE Hypalbuminaemia: No. subjects (%),"FG001 36 mg i.v., N=4",1 (25.0%)
same,TEAE Hyperglycaemia: No. events,"FG001 36 mg i.v., N=4",1
same,TEAE Hyperglycaemia: No. subjects (%),"FG001 36 mg i.v., N=4",1 (25.0%)
same,TEAE Hypertension: No. events,"FG001 36 mg i.v., N=4",1
same,TEAE Hypertension: No. subjects (%),"FG001 36 mg i.v., N=4",1 (25.0%)
same,TEAE Hyponatraemia: No. events,"FG001 36 mg i.v., N=4",0
same,TEAE Hyponatraemia: No. subjects (%),"FG001 36 mg i.v., N=4",0 (0.0%)
same,TEAE Hypotension: No. events,"FG001 36 mg i.v., N=4",0
same,TEAE Hypotension: No. subjects (%),"FG001 36 mg i.v., N=4",0 (0.0%)
same,TEAE Hypothermia: No. events,"FG001 36 mg i.v., N=4",2
same,TEAE Hypothermia: No. subjects (%),"FG001 36 mg i.v., N=4",1 (25.0%)
same,TEAE Pneumonia: No. events,"FG001 36 mg i.v., N=4",0
same,TEAE Pneumonia: No. subjects (%),"FG001 36 mg i.v., N=4",0 (0.0%)
same,TEAE SOC General disorders and administration site conditions: No. events,"FG001 36 mg i.v., N=4",2
same,TEAE SOC General disorders and administration site conditions: No. subjects (%),"FG001 36 mg i.v., N=4",1 (25.0%)
same,TEAE SOC Infections and infestations: No. events,"FG001 36 mg i.v., N=4",0
same,TEAE SOC Infections and infestations: No. subjects (%),"FG001 36 mg i.v., N=4",0 (0.0%)
same,TEAE SOC Investigations: No. events,"FG001 36 mg i.v., N=4",9
same,TEAE SOC Investigations: No. subjects (%),"FG001 36 mg i.v., N=4",4 (100.0%)
same,TEAE SOC Metabolism and nutrition disorders: No. events,"FG001 36 mg i.v., N=4",2
same,TEAE SOC Metabolism and nutrition disorders: No. subjects (%),"FG001 36 mg i.v., N=4",1 (25.0%)
same,TEAE SOC Nervous system disorders: No. events,"FG001 36 mg i.v., N=4",0
same,TEAE SOC Nervous system disorders: No. subjects (%),"FG001 36 mg i.v., N=4",0 (0.0%)
same,TEAE SOC Vascular disorders: No. events,"FG001 36 mg i.v., N=4",1
same,TEAE SOC Vascular disorders: No. subjects (%),"FG001 36 mg i.v., N=4",1 (25.0%)
same,FG001 related TEAEs: No. events,"FG001 36 mg i.v., n = 4",0
same,FG001 related TEAEs: No. patients (%),"FG001 36 mg i.v., n = 4",0 (0%)
same,SAEs: No. events,"FG001 36 mg i.v., n = 4",0
same,SAEs: No. patients (%),"FG001 36 mg i.v., n = 4",0 (0%)
same,TEAE: No. events,"FG001 36 mg i.v., n = 4",14
same,TEAE: No. patients (%),"FG001 36 mg i.v., n = 4",4 (100%)
same,TEAE Mild (Grade 1): No. events,[1],8
same,TEAE Mild (Grade 1): No. patients (%),[1],1 (25.0%)
same,TEAE Moderate (Grade 2): No. events,[1],3
same,TEAE Moderate (Grade 2): No. patients (%),[1],2 (50.0%)
same,TEAE Severe (Grade 3): No. events,[1],3
same,TEAE Severe (Grade 3): No. patients (%),[1],1 (25.0%)
same,TEAE Mild (Grade 1): No. events,"all doses, N = 17, CTCAE v5.0",24
same,TEAE Mild (Grade 1): No. patients (%),"all doses, N = 17, CTCAE v5.0",7 (41.2%)
same,TEAE Moderate (Grade 2): No. patients (%),"all doses, N = 17, CTCAE v5.0",8 (47.1%)
same,TEAE Severe (Grade 3): No. patients (%),"all doses, N = 17, CTCAE v5.0",1 (5.9%)
same,FG001 related TEAEs: No. events,"all doses, N=17",0
same,FG001 related TEAEs: No. patients (%),"all doses, N=17",0 (0%)
same,SAEs: No. events,"all doses, N=17",0
same,SAEs: No. patients (%),"all doses, N=17",0 (0%)
same,TEAE ALT increased: No. events,"all doses, N=17",1
same,TEAE ALT increased: No. subjects (%),"all doses, N=17",1 (5.9%)
same,TEAE AST increased: No. events,"all doses, N=17",3
same,TEAE AST increased: No. subjects (%),"all doses, N=17",3 (17.6%)
same,TEAE Blood ALP increased: No. events,"all doses, N=17",1
same,TEAE Blood ALP increased: No. subjects (%),"all doses, N=17",1 (5.9%)
same,TEAE Blood bilirubin increased: No. events,"all doses, N=17",7
same,TEAE Blood bilirubin increased: No. subjects (%),"all doses, N=17",7 (41.2%)
same,TEAE Blood creatinine increased: No. events,"all doses, N=17",2
same,TEAE Blood creatinine increased: No. subjects (%),"all doses, N=17",2 (11.8%)
same,TEAE Dysgeusia: No. events,"all doses, N=17",1
same,TEAE GGT increased: No. events,"all doses, N=17",1
same,TEAE GGT increased: No. subjects (%),"all doses, N=17",1 (5.9%)
same,TEAE Hypalbuminaemia: No. events,"all doses, N=17",10
same,TEAE Hypalbuminaemia: No. subjects (%),"all doses, N=17",10 (58.8%)
same,TEAE Hyperglycaemia: No. events,"all doses, N=17",2
same,TEAE Hyperglycaemia: No. subjects (%),"all doses, N=17",2 (11.8%)
same,TEAE Hypertension: No. events,"all doses, N=17",2
same,TEAE Hypertension: No. subjects (%),"all doses, N=17",2 (11.8%)
same,TEAE Hyponatraemia: No. events,"all doses, N=17",1
same,TEAE Hyponatraemia: No. subjects (%),"all doses, N=17",1 (5.9%)
same,TEAE Hypotension: No. events,"all doses, N=17",1
same,TEAE Hypotension: No. subjects (%),"all doses, N=17",1 (5.9%)
same,TEAE Hypothermia: No. events,"all doses, N=17",3
same,TEAE Pneumonia: No. events,"all doses, N=17",1
same,TEAE Pneumonia: No. subjects (%),"all doses, N=17",1 (5.9%)
same,TEAE SOC General disorders and administration site conditions: No. events,"all doses, N=17",3
same,TEAE SOC Infections and infestations: No. events,"all doses, N=17",1
same,TEAE SOC Investigations: No. events,"all doses, N=17",15
same,TEAE SOC Investigations: No. subjects (%),"all doses, N=17",9 (52.9%)
same,TEAE SOC Metabolism and nutrition disorders: No. events,"all doses, N=17",13
same,TEAE SOC Metabolism and nutrition disorders: No. subjects (%),"all doses, N=17",10 (58.8%)
same,TEAE SOC Nervous system disorders: No. events,"all doses, N=17",1
same,TEAE SOC Vascular disorders: No. events,"all doses, N=17",3
same,TEAE SOC Vascular disorders: No. subjects (%),"all doses, N=17",3 (17.6%)
same,TEAE: No. events,"all doses, N=17",36
same,TEAE: No. patients (%),"all doses, N=17",16 (94.1%)
same,"TEAE Alanine aminotransferase increased, Grade 3: No. events","all doses, Table S1",1
same,"TEAE Alkaline phosphatase increased, Grade 1: No. events","all doses, Table S1",1
same,"TEAE Aspartate aminotransferase increased, Grade 1: No. events","all doses, Table S1",2
same,"TEAE Aspartate aminotransferase increased, Grade 3: No. events","all doses, Table S1",1
same,"TEAE Blood bilirubin increased, Grade 1: No. events","all doses, Table S1",5
same,"TEAE Blood bilirubin increased, Grade 2: No. events","all doses, Table S1",2
same,"TEAE Creatinine increased, Grade 1: No. events","all doses, Table S1",2
same,"TEAE Dysgeusia (salty taste), Grade 1: No. events","all doses, Table S1",1
same,"TEAE GGT increased, Grade 3: No. events","all doses, Table S1",1
same,"TEAE Hyperglycemia, Grade 1: No. events","all doses, Table S1",2
same,"TEAE Hypertension, Grade 2: No. events","all doses, Table S1",2
same,"TEAE Hypoalbuminemia, Grade 1: No. events","all doses, Table S1",6
same,"TEAE Hypoalbuminemia, Grade 2: No. events","all doses, Table S1",4
same,"TEAE Hyponatremia, Grade 1: No. events","all doses, Table S1",1
same,"TEAE Hypotension, Grade 1: No. events","all doses, Table S1",1
same,"TEAE Hypothermia, Grade 1: No. events","all doses, Table S1",3
same,"TEAE Pneumonia, Grade 2: No. events","all doses, Table S1",1
same,Findings related to FG001 administration at physical examinations,in vivo,No abnormal findings
